Here are results for 2 substances from publication PMC12000397.

Experiment [1] has as its target Grp94 N91C labeled with Alexa Fluor 555 (donor) and Alexa Fluor 647 (acceptor) (mouse) (UniProt P08113). The experiment can be described thus: other fluorescence titration; bulk FRET of 125 nM donor- and acceptor-labeled Grp94 N91C, BiP NBD titrated, apo conditions; 30 °C, 25 mM Tris pH 7.5, 50 mM KCl, 1 mM BME, 1 mg/mL BSA; single-site fit; apparent.
For experiment [2], the target named is FITC-labeled BiP_(D187A) NBD (mouse). The experiment can be described thus: fluorescence polarisation; 50 nM FITC-labeled BiP NBD constructs, Grp94 or Grp94 MD titrated; 25 mM Tris pH 7.5, 50 mM KCl, 1 mM ADP (hexokinase-treated), 1 mM DTT; single-site binding fit. Background: Fluorescence polarisation rises when a labelled molecule tumbles more slowly, as on binding a larger partner.

The target of experiment [3] is FITC-labeled BiP_(I191A) NBD (mouse). Described as above.
In experiment [4] the target is FITC-labeled BiP NBD (mouse). Described as above.

Grp94 (residues 72-765) with the charged-linker removed (Δ287-328), sequence (P08113 other isoform, or with tags, fused parts or gaps mutant): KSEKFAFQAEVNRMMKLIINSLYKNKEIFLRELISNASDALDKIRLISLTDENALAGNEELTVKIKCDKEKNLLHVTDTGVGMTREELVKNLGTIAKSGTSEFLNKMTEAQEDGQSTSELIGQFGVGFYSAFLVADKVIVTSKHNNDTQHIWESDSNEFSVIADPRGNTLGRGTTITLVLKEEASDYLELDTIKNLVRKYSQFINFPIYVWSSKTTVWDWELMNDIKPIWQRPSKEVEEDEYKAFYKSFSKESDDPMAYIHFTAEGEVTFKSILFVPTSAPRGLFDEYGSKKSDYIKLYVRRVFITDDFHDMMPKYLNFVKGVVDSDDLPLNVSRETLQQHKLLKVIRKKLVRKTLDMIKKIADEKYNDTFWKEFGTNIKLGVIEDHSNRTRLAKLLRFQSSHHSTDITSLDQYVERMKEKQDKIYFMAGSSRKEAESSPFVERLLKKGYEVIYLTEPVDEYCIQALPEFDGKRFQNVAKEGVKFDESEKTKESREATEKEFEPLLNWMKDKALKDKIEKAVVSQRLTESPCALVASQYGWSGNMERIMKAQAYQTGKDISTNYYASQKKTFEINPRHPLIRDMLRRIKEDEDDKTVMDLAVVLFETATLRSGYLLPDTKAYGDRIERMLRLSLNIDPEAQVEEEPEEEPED
Grp94 N91C labeled with Alexa Fluor 555 (donor) and Alexa Fluor 647 (acceptor) (mouse), sequence (P08113 other isoform, or with tags, fused parts or gaps Δ287-328 | N91C | N91C): as the sequence (P08113 other isoform, or with tags, fused parts or gaps mutant) above, with N20C counted along it

On to BiP NBD (domain or fragment), for which the Kd in experiment [1] amounted to 0.67 µM.
Regarding “Grp94 (residues 72-765) with the charged-linker removed (Δ287-328) (from UniProt P08113 72-765) (natural protein)”, the Kd in experiment [2] turned out to be 8.2 µM; in experiment [3] it was 9 µM; in experiment [4] it was 1.4 µM.
